How the values were obtained:
[1] = molecular target: human GLP1 receptor (human) (UniProt P43220); test: cell-based or functional assay
[2] = in vivo; cited from earlier work
[3] = system: PB0967, GLP1-ELP construct with Met-Ala-Ala at the N-terminus (Met removed by E. coli), not treated with DPP-IV
[4] = in vivo; cited from earlier work; remark: listed apart in the source

Chain of UniProt P43220 (P43220 24-463): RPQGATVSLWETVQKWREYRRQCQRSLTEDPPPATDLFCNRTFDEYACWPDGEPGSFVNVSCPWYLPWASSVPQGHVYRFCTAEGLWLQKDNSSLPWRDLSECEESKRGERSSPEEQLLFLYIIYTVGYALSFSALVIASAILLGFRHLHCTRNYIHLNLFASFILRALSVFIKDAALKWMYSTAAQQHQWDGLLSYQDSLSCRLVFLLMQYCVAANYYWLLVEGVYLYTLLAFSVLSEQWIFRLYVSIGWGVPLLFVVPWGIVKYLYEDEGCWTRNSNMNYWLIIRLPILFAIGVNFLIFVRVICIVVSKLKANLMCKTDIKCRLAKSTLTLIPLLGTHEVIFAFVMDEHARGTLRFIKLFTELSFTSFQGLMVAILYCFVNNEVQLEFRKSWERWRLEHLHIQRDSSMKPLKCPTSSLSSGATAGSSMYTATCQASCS

Exendin-4 peptide
EC50 in cAMP assay [1]: 1 nM

GLP-1: native glucagon-like peptide-1, physiological incretin originating from preproglucagon
plasma half-life (t1/2) [2]: 1 to 2 min

dipeptidyl peptidase-4 (DPP-IV)
gain of cAMP activity of the substrate after DPP-IV treatment (enzyme processing) [3]: is activated if it is first treated with DPP-IV to remove the remaining Ala-Ala and expose the N-terminal His of GLP1

HSDAVFTDNYTRLRKQMAVKKYLNSILN [VIP]
half-life in the blood [4]: about two
